Measured values taken from patent US20170158742A1 (NATIONAL UNIVERSITY OF SINGAPORE, published 2017).

Target: biotinylated full-length Dengue virus capsid (DENV C) protein (Dengue virus serotype 2 (NGC strain))
Assay: ELISA, coated bought protein, biotinylated DENV C as probe, streptavidin-HRP

Binder	binding result
DIM1 dimethyladenosine transferase 1 homolog (S. cerevisiae) (enzyme, also called DIMT1) MPKVKSGAIGRRRGRQEQRRELKSAGGLMFNTGIGQHILKNPLIINSIIDKAALRPTDVVLEVGPGTGNMTVKLLEKAKKVVACELDPRLVAELHKRVQGTPVASKLQVLVGDVLKTDLPFFDTCVANLPYQISSPFVFKLLLHRPFFRCAILMFQREFALRLVAKPGDKLYCRLSINTQLLARVDHLMKVGKNNFRPPPKVESSVVRIEPKNPPPPINFQEWDGLVRITFVRKNKTLSAAFKSSAVQQLLEKNYRIHCSVHNIIIPEDFSIADKIQQILTSTGFSDKRARSMDIDDFIRLLHGFNAEGIHFS	binds
Signal recognition particle 19kDa (other, also called SRP19) MACAAARSPADQDRFICIYPAYLNNKKTIAEGRRIPISKAVENPTATEIQDVCSAVGLNVFLEKNKMYSREWNRDVQYRGRVRVQLKQEDGSLCLVQFPSRKSVMLYAAEMIPKLKTRTQKTGGADQSLQQGEGSKKGKGKKKK	binds
Vaccinia related kinase 1 (enzyme, also called VRK1) MPRVKAAQAGRQSSAKRHLAEQFAVGEIITDMAKKEWKVGLPIGQGGFGCIYLADMNSSESVGSDAPCVVKVEPSDNGPLFTELKFYQRAAKPEQIQKWIRTRKLKYLGVPKYWGSGLHDKNGKSYRFMIMDRFGSDLQKIYEANAKRFSRKTVLQLSLRILDILEYIHEHEYVHGDIKASNLLLNYKNPDQVYLVDYGLAYRYCPEGVHKEYKEDPKRCHDGTIEFTSIDAHNGVAPSRRGDLEILGYCMIQWLTGHLPWEDNLKDPKYVRDSKIRYRENIASLMDKCFPEKNKPGEIAKYMETVKLLDYTEKPLYENLRDILLQGLKAIGSKDDGKLDLSVVENGGLKAKTITKKRKKEIEESKEPGVEDTEWSNTQTEEAIQTRSRTRKRVQK	binds
